The values below come from the supplement of paper PMC10567573.

The labels stand for the following.
B1: NEK8 (parent)
chain: VVGTPCYISPELCEGKPYNQKSDI
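Further: lentivirally expressed fusions sorted by FACS into six bins by GFP to DsRed ratio, PSI derived from sequencing read proportions per bin multiplied by bin number.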

The variants in the data set derive from B1. The data set can be described thus: protein stability index of a GFP-peptide fusion (GPS, HEK-293T) (PSI 1-6); higher = more stable. The settings on record: c terminus: a fixed tail appended.
As for VVVTPCYISPELCEGKPYNQKSDI [G3V], the protein stability index was determined as 2.07.

VVMTPCYISPELCEGKPYNQKSDI [G3M]: the protein stability index stood at 1.84.

Consider VVATPCYISPELCEGKPYNQKSDI [G3A], for which the protein stability index came to 2.31.

Regarding VVCTPCYISPELCEGKPYNQKSDI [G3C], the protein stability index is 2.23.

In the case of VVYTPCYISPELCEGKPYNQKSDI [G3Y], the protein stability index amounted to 1.65.

As to VVRTPCYISPELCEGKPYNQKSDI [G3R], the protein stability index amounted to 2.74.

On to VVDTPCYISPELCEGKPYNQKSDI [G3D], for which the protein stability index was 3.26.

Turning to VVTTPCYISPELCEGKPYNQKSDI [G3T], the protein stability index is 3.01.

In the case of VVKTPCYISPELCEGKPYNQKSDI [G3K], the protein stability index is 2.9.

As for VVPTPCYISPELCEGKPYNQKSDI [G3P], the protein stability index stood at 3.38.

Consider VVNTPCYISPELCEGKPYNQKSDI [G3N], for which the protein stability index was determined as 3.52.

As for VVHTPCYISPELCEGKPYNQKSDI [G3H], the protein stability index came out at 2.74.

Consider VVETPCYISPELCEGKPYNQKSDI [G3E], for which the protein stability index came out at 2.7.

As to VVSTPCYISPELCEGKPYNQKSDI [G3S], the protein stability index amounted to 3.01.

For the variant VVQTPCYISPELCEGKPYNQKSDI [G3Q], the protein stability index amounted to 2.5.

Regarding VVLTPCYISPELCEGKPYNQKSDI [G3L], the protein stability index stood at 1.63.

In the case of VVWTPCYISPELCEGKPYNQKSDI [G3W], the protein stability index was found to be 2.05.

With VVITPCYISPELCEGKPYNQKSDI [G3I], the protein stability index was found to be 1.8.

With VVFTPCYISPELCEGKPYNQKSDI [G3F], the protein stability index is 1.48.

For VVGTPCYLSPELCEGKPYNQKSDI [I8L], the protein stability index is 3.48.

As for VVGTPCYNSPELCEGKPYNQKSDI [I8N], the protein stability index worked out at 4.4.

As for VVGTPCYHSPELCEGKPYNQKSDI [I8H], the protein stability index stood at 3.2.

Turning to VVGTPCYASPELCEGKPYNQKSDI [I8A], the protein stability index worked out at 4.4.

VVGTPCYSSPELCEGKPYNQKSDI [I8S]: the protein stability index turned out to be 3.98.

VVGTPCYGSPELCEGKPYNQKSDI [I8G]: the protein stability index amounted to 4.42.

Consider VVGTPCYKSPELCEGKPYNQKSDI [I8K], for which the protein stability index amounted to 4.14.

For VVGTPCYVSPELCEGKPYNQKSDI [I8V], the protein stability index is 4.03.

On to VVGTPCYDSPELCEGKPYNQKSDI [I8D], for which the protein stability index was 4.18.

In the case of VVGTPCYFSPELCEGKPYNQKSDI [I8F], the protein stability index was 2.9.

As for VVGTPCYQSPELCEGKPYNQKSDI [I8Q], the protein stability index was 4.42.

With VVGTPCYYSPELCEGKPYNQKSDI [I8Y], the protein stability index turned out to be 2.31.

For VVGTPCYMSPELCEGKPYNQKSDI [I8M], the protein stability index is 2.89.

With VVGTPCYESPELCEGKPYNQKSDI [I8E], the protein stability index came to 4.5.

Consider VVGTPCYRSPELCEGKPYNQKSDI [I8R], for which the protein stability index stood at 3.7.

Regarding VVGTPCYPSPELCEGKPYNQKSDI [I8P], the protein stability index amounted to 4.29.

For VVGTPCYWSPELCEGKPYNQKSDI [I8W], the protein stability index came to 2.27.

Turning to VVGTPCYCSPELCEGKPYNQKSDI [I8C], the protein stability index was determined as 3.05.

For VVGTPCYTSPELCEGKPYNQKSDI [I8T], the protein stability index was 3.77.

For the variant EVGTPCYISPELCEGKPYNQKSDI [V1E], the protein stability index is 4.48.

Consider HVGTPCYISPELCEGKPYNQKSDI [V1H], for which the protein stability index amounted to 2.77.

For FVGTPCYISPELCEGKPYNQKSDI [V1F], the protein stability index was 1.22.

For the variant AVGTPCYISPELCEGKPYNQKSDI [V1A], the protein stability index worked out at 3.78.

On to KVGTPCYISPELCEGKPYNQKSDI [V1K], for which the protein stability index came to 4.06.

QVGTPCYISPELCEGKPYNQKSDI [V1Q]: the protein stability index worked out at 4.14.

For the variant DVGTPCYISPELCEGKPYNQKSDI [V1D], the protein stability index stood at 4.53.

As to SVGTPCYISPELCEGKPYNQKSDI [V1S], the protein stability index is 4.03.

With YVGTPCYISPELCEGKPYNQKSDI [V1Y], the protein stability index came to 2.88.

As for WVGTPCYISPELCEGKPYNQKSDI [V1W], the protein stability index amounted to 2.62.

As for GVGTPCYISPELCEGKPYNQKSDI [V1G], the protein stability index amounted to 4.28.

In the case of LVGTPCYISPELCEGKPYNQKSDI [V1L], the protein stability index was found to be 3.1.

As to IVGTPCYISPELCEGKPYNQKSDI [V1I], the protein stability index was 2.32.

Consider NVGTPCYISPELCEGKPYNQKSDI [V1N], for which the protein stability index was determined as 4.48.

Turning to CVGTPCYISPELCEGKPYNQKSDI [V1C], the protein stability index was determined as 3.31.

Consider TVGTPCYISPELCEGKPYNQKSDI [V1T], for which the protein stability index is 3.76.

On to RVGTPCYISPELCEGKPYNQKSDI [V1R], for which the protein stability index stood at 3.74.

MVGTPCYISPELCEGKPYNQKSDI [V1M]: the protein stability index worked out at 3.42.

For PVGTPCYISPELCEGKPYNQKSDI [V1P], the protein stability index is 4.25.

For the variant VVGTPCHISPELCEGKPYNQKSDI [Y7H], the protein stability index stood at 3.87.

For the variant VVGTPCKISPELCEGKPYNQKSDI [Y7K], the protein stability index amounted to 3.92.

With VVGTPCVISPELCEGKPYNQKSDI [Y7V], the protein stability index was found to be 4.04.

As to VVGTPCGISPELCEGKPYNQKSDI [Y7G], the protein stability index came out at 3.98.

As for VVGTPCCISPELCEGKPYNQKSDI [Y7C], the protein stability index came out at 4.16.

VVGTPCDISPELCEGKPYNQKSDI [Y7D]: the protein stability index turned out to be 4.69.

Turning to VVGTPCLISPELCEGKPYNQKSDI [Y7L], the protein stability index came to 3.83.

For VVGTPCRISPELCEGKPYNQKSDI [Y7R], the protein stability index was determined as 3.96.

VVGTPCSISPELCEGKPYNQKSDI [Y7S]: the protein stability index is 3.69.

With VVGTPCQISPELCEGKPYNQKSDI [Y7Q], the protein stability index was 4.35.

Take VVGTPCAISPELCEGKPYNQKSDI [Y7A]: the protein stability index was 3.94.

Turning to VVGTPCTISPELCEGKPYNQKSDI [Y7T], the protein stability index is 4.36.

As for VVGTPCNISPELCEGKPYNQKSDI [Y7N], the protein stability index is 4.52.

In the case of VVGTPCIISPELCEGKPYNQKSDI [Y7I], the protein stability index came to 4.08.

On to VVGTPCFISPELCEGKPYNQKSDI [Y7F], for which the protein stability index was determined as 3.05.

As for VVGTPCWISPELCEGKPYNQKSDI [Y7W], the protein stability index is 2.82.

Take VVGTPCMISPELCEGKPYNQKSDI [Y7M]: the protein stability index is 3.97.

VVGTPCEISPELCEGKPYNQKSDI [Y7E]: the protein stability index turned out to be 4.5.

For VVGTPCPISPELCEGKPYNQKSDI [Y7P], the protein stability index came out at 4.16.

With VWGTPCYISPELCEGKPYNQKSDI [V2W], the protein stability index was 2.8.

As for VTGTPCYISPELCEGKPYNQKSDI [V2T], the protein stability index amounted to 3.73.

As to VYGTPCYISPELCEGKPYNQKSDI [V2Y], the protein stability index was 3.23.

Turning to VDGTPCYISPELCEGKPYNQKSDI [V2D], the protein stability index was found to be 3.9.

Take VFGTPCYISPELCEGKPYNQKSDI [V2F]: the protein stability index stood at 3.12.

With VIGTPCYISPELCEGKPYNQKSDI [V2I], the protein stability index was found to be 3.56.

On to VLGTPCYISPELCEGKPYNQKSDI [V2L], for which the protein stability index came out at 3.58.

Consider VNGTPCYISPELCEGKPYNQKSDI [V2N], for which the protein stability index was determined as 3.63.

In the case of VHGTPCYISPELCEGKPYNQKSDI [V2H], the protein stability index came out at 3.68.

For VRGTPCYISPELCEGKPYNQKSDI [V2R], the protein stability index worked out at 3.4.

For VCGTPCYISPELCEGKPYNQKSDI [V2C], the protein stability index worked out at 2.89.

With VMGTPCYISPELCEGKPYNQKSDI [V2M], the protein stability index stood at 3.23.

On to VQGTPCYISPELCEGKPYNQKSDI [V2Q], for which the protein stability index turned out to be 3.77.

Regarding VAGTPCYISPELCEGKPYNQKSDI [V2A], the protein stability index came out at 3.49.

Consider VSGTPCYISPELCEGKPYNQKSDI [V2S], for which the protein stability index is 3.75.

On to VPGTPCYISPELCEGKPYNQKSDI [V2P], for which the protein stability index turned out to be 3.44.

In the case of VEGTPCYISPELCEGKPYNQKSDI [V2E], the protein stability index stood at 4.59.

For VKGTPCYISPELCEGKPYNQKSDI [V2K], the protein stability index came out at 3.93.
